The subject of series [1] is HeLa Kyoto. Put plainly: solubility change mitosis vs G1/S (difference of NP-40 vs SDS log2 ratios) (log2 ratio difference); higher = more soluble in mitosis.
Series [2] relates to HeLa Kyoto. Kind of series: thermal stability score vs G1/S (z-score of summed log2 fold changes over temperatures); higher = more thermally stable than in G1/S.
Series [3] concerns HeLa Kyoto. Kind of series: solubility in G1/S (NP-40 vs SDS abundance) (log2 ratio); higher = more soluble. The settings on record: cell cycle stage: G1/S.
[4] abbreviates: cell cycle stage: early G1 (4.5 h after nocodazole release).
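Wherever solubility change mitosis vs G1/S (difference of NP-40 vs SDS log2 ratios) is given: synchronized HeLa Kyoto cells (double thymidine block for G1/S, nocodazole release for mitosis), protein amounts in NP-40 versus SDS lysates quantified by mass spectrometry, three biological replicates.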
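Wherever solubility in G1/S (NP-40 vs SDS abundance) is given: HeLa Kyoto cells arrested at G1/S by double thymidine block, proteins quantified by TMT10plex mass spectrometry in mild NP-40 versus SDS extracts, three biological replicates.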
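Wherever thermal stability score vs G1/S (z-score of summed log2 fold changes over temperatures) is given: synchronized HeLa Kyoto cells, proteins quantified by TMT10plex mass spectrometry, three biological replicates, mitosis taken 0.5 h after nocodazole release, G1/S directly after double thymidine block.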

As for “MAGAENWPGQQLELDEDEASCCRWGAQHAGARELAALYSPGKRLQEWCSVILCFSLIAHNLVHLLLLARWEDTPLVILGVVAGALIADFLSGLVHWGADTWGSVELPIVGKAFIRPFREHHIDPTAITRHDFIETNGDNCLVTLLPLLNMAYKFRTHSPEALEQLYPWECFVFCLIIFGTFTNQIHKWSHTYFGLPRWVTLLQDWHVILPRKHHRIHHVSPHETYFCITTGWLNYPLEKIGFWRRLEDLIQGLTGEKPRADDMKWAQKIK [TMEM189]”, in the series with HeLa Kyoto [1], the “solubility change mitosis (log2)” value turned out to be 0.0319. In addition, the thermal stability score with HeLa Kyoto [2] (setting [4]) is -3.23; with HeLa Kyoto [2] (cell cycle stage: mitosis), -3.53. Besides, the “solubility in G1/S (log2)” value in the series on HeLa Kyoto [3] is -0.215.

Take “MAGSYPEGAPAVLADKRQQFGSRFLRDPARVFHHNAWDNVEWSEEQAAAAERKVQENSIQRVCQEKQVDYEINAHKYWNDFYKIHENGFFKDRHWLFTEFPELAPSQNQNHLKDWFLENKSEVPECRNNEDGPGLIMEEQHKCSSKSLEHKTQTLPVEENVTQKISDLEICADEFPGSSATYRILEVGCGVGNTVFPILQTNNDPGLFVYCCDFSSTAIELVQTNSEYDPSRCFAFVHDLCDEEKSYPVPKGSLDIIILIFVLSAIVPDKMQKAINRLSRLLKPGGMMLLRDYGRYDMAQLRFKKGQCLSGNFYVRGDGTRVYFFTQEELDTLFTTAGLEKVQNLVDRRLQVNRGKQLTMYRVWIQCKYCKPLLSSTS [METTL2A]”: in the series on HeLa Kyoto [1], the “solubility change mitosis (log2)” value was 0.0978. The thermal stability score with HeLa Kyoto [2] (setting [4]) was determined as 0.497; in the series on HeLa Kyoto [2] (cell cycle stage: mitosis), 0.608. Also, in the series with HeLa Kyoto [3], the “solubility in G1/S (log2)” value was 0.185.

In the case of “MAKAAASSSLEDLDLSGEEVQRLTSAFQDPEFRRMFSQYAEELTDPENRRRYEAEITALERERGVEVRFVHPEPGHVLRTSLDGARRCFVNVCSNALVGAPSSRPGSGGDRGAAPGSHWSLPYSLAPGREYAGRSSSRYMVYDVVFHPDALALARRHEGFRQMLDATALEAVEKQFGVKLDRRNAKTLKAKYKGTPEAAVLRTPLPGVIPARPDGEPKGPLPDFPYPYQYPAAPGPRAPSPPEAALQPAPTEPRYSVVQRHHVDLQDYRCSRDSAPSPVPHELVITIELPLLRSAEQAALEVTRKLLCLDSRKPDYRLRLSLPYPVDDGRGKAQFNKARRQLVVTLPVVLPAARREPAVAVAAAAPEESADRSGTDGQACASAREGEAGPARSRAEDGGHDTCVAGAAGSGVTTLGDPEVAPPPAAAGEERVPKPGEQDLSRHAGSPPGSVEEPSPGGENSPGGGGSPCLSSRSLAWGSSAGRESARGDSSVETREESEGTGGQRSACAMGGPGTKSGEPLCPPLLCNQDKETLTLLIQVPRIQPQSLQGDLNPLWYKLRFSAQDLVYSFFLQFAPENKLSTTEPVISISSNNAVIELAKSPESHGHWREWYYGVNNDSLEERLFVNEENVNEFLEEVLSSPFKQSMSLTPPLIEVLQVTDNKIQINAKLQECSNSDQLQGKEERVNEESHLTEKEYIEHCNTPTTDSDSSIAVKALQIDSFGLVTCFQQESLDVSQMILGKSQQPESKMQSEFIKEKSATCSNEEKDNLNESVITEEKETDGDHLSSLLNKTTVHNIPGFDSIKETNMQDGSVQVIKDHVTNCAFSFQNSLLYDLD [DNAAF2]”, in the series with HeLa Kyoto [1], the “solubility change mitosis (log2)” value stood at 0.11. In addition, the thermal stability score in the series with HeLa Kyoto [2] (setting [4]) is -0.286; in the series on HeLa Kyoto [2] (cell cycle stage: mitosis) it was -0.17. In addition, the “solubility in G1/S (log2)” value in the series with HeLa Kyoto [3] was -0.0763.

With “MALAVLRVLEPFPTETPPLAVLLPPGGPWPAAELGLVLALRPAGESPAGPALLVAALEGPDAGTEEQGPGPPQLLVSRALLRLLALGSGAWVRARAVRRPPALGWALLGTSLGPGLGPRVGPLLVRRGETLPVPGPRVLETRPALQGLLGPGTRLAVTELRGRARLCPESGDSSRPPPPPVVSSFAVSGTVRRLQGVLGGTGDSLGVSRSCLRGLGLFQGEWVWVAQARESSNTSQPHLARVQVLEPRWDLSDRLGPGSGPLGEPLADGLALVPATLAFNLGCDPLEMGELRIQRYLEGSIAPEDKGSCSLLPGPPFARELHIEIVSSPHYSTNGNYDGVLYRHFQIPRVVQEGDVLCVPTIGQVEILEGSPEKLPRWREMFFKVKKTVGEAPDGPASAYLADTTHTSLYMVGSTLSPVPWLPSEESTLWSSLSPPGLEALVSELCAVLKPRLQPGGALLTGTSSVLLRGPPGCGKTTVVAAACSHLGLHLLKVPCSSLCAESSGAVETKLQAIFSRARRCRPAVLLLTAVDLLGRDRDGLGEDARVMAVLRHLLLNEDPLNSCPPLMVVATTSRAQDLPADVQTAFPHELEVPALSEGQRLSILRALTAHLPLGQEVNLAQLARRCAGFVVGDLYALLTHSSRAACTRIKNSGLAGGLTEEDEGELCAAGFPLLAEDFGQALEQLQTAHSQAVGAPKIPSVSWHDVGGLQEVKKEILETIQLPLEHPELLSLGLRRSGLLLHGPPGTGKTLLAKAVATECSLTFLSVKGPELINMYVGQSEENVREVFARARAAAPCIIFFDELDSLAPSRGRSGDSGGVMDRVVSQLLAELDGLHSTQDVFVIGATNRPDLLDPALLRPGRFDKLVFVGANEDRASQLRVLSAITRKFKLEPSVSLVNVLDCCPPQLTGADLYSLCSDAMTAALKRRVHDLEEGLEPGSSALMLTMEDLLQAAARLQPSVSEQELLRYKRIQRKFAAC [PEX6]”, the “solubility change mitosis (log2)” value in the series with HeLa Kyoto [1] is -0.158. For the same sequence, the results for the thermal stability score in the series with HeLa Kyoto [2] (setting [4]) and with HeLa Kyoto [2] (cell cycle stage: mitosis) were -0.844 and -0.711, respectively. In the series with HeLa Kyoto [3], the “solubility in G1/S (log2)” value turned out to be 0.167.

As for “MALVSADSRIAELLTELHQLIKQTQEERSRSEHNLVNIQKTHERMQTENKISPYYRTKLRGLYTTAKADAEAECNILRKALDKIAEIKSLLEERRIAAKIAGLYNDSEPPRKTMRRGVLMTLLQQSAMTLPLWIGKPGDKPPPLCGAIPASGDYVARPGDKVAARVKAVDGDEQWILAEVVSYSHATNKYEVDDIDEEGKERHTLSRRRVIPLPQWKANPETDPEALFQKEQLVLALYPQTTCFYRALIHAPPQRPQDDYSVLFEDTSYADGYSPPLNVAQRYVVACKEPKKK [SGF29]”, the “solubility change mitosis (log2)” value in the series with HeLa Kyoto [1] worked out at 0.314. The thermal stability score in the series with HeLa Kyoto [2] (setting [4]) was -0.0915; with HeLa Kyoto [2] (cell cycle stage: mitosis) it was -0.207. Also, the “solubility in G1/S (log2)” value in the series on HeLa Kyoto [3] came out at 0.435.

Regarding “MAMQMQLEANADTSVEEESFGPQPISRLEQCGINANDVKKLEEAGFHTVEAVAYAPKKELINIKGISEAKADKILAEAAKLVPMGFTTATEFHQRRSEIIQITTGSKELDKLLQGGIETGSITEMFGEFRTGKTQICHTLAVTCQLPIDRGGGEGKAMYIDTEGTFRPERLLAVAERYGLSGSDVLDNVAYARAFNTDHQTQLLYQASAMMVESRYALLIVDSATALYRTDYSGRGELSARQMHLARFLRMLLRLADEFGVAVVITNQVVAQVDGAAMFAADPKKPIGGNIIAHASTTRLYLRKGRGETRICKIYDSPCLPEAEAMFAINADGVGDAKD [RAD51]”, in the series with HeLa Kyoto [1], the “solubility change mitosis (log2)” value was -0.238. For the same sequence, the thermal stability score with HeLa Kyoto [2] (setting [4]) is -1.12; in the series with HeLa Kyoto [2] (cell cycle stage: mitosis) it was -1.89. The “solubility in G1/S (log2)” value in the series on HeLa Kyoto [3] was -0.073.

“MANSMNGRNPGGRGGNPRKGRILGIIDAIQDAVGPPKQAAADRRTVEKTWKLMDKVVRLCQNPKLQLKNSPPYILDILPDTYQHLRLILSKYDDNQKLAQLSENEYFKIYIDSLMKKSKRAIRLFKEGKERMYEEQSQDRRNLTKLSLIFSHMLAEIKAIFPNGQFQGDNFRITKADAAEFWRKFFGDKTIVPWKVFRQCLHEVHQISSGLEAMALKSTIDLTCNDYISVFEFDIFTRLFQPWGSILRNWNFLAVTHPGYMAFLTYDEVKARLQKYSTKPGSYIFRLSCTRLGQWAIGYVTGDGNILQTIPHNKPLFQALIDGSREGFYLYPDGRSYNPDLTGLCEPTPHDHIKVTQEQYELYCEMGSTFQLCKICAENDKDVKIEPCGHLMCTSCLTAWQESDGQGCPFCRCEIKGTEPIIVDPFDPRDEGSRCCSIIDPFGMPMLDLDDDDDREESLMMNRLANVRKCTDRQNSPVTSPGSSPLAQRRKPQPDPLQIPHLSLPPVPPRLDLIQKGIVRSPCGSPTGSPKSSPCMVRKQDKPLPAPPPPLRDPPPPPPERPPPIPPDNRLSRHIHHVESVPSRDPPMPLEAWCPRDVFGTNQLVGCRLLGEGSPKPGITASSNVNGRHSRVGSDPVLMRKHRRHDLPLEGAKVFSNGHLGSEEYDVPPRLSPPPPVTTLLPSIKCTGPLANSLSEKTRDPVEEDDDEYKIPSSHPVSLNSQPSHCHNVKPPVRSCDNGHCMLNGTHGPSSEKKSNIPDLSIYLKGDVFDSASDPVPLPPARPPTRDNPKHGSSLNRTPSDYDLLIPPLGEDAFDALPPSLPPPPPPARHSLIEHSKPPGSSSRPSSGQDLFLLPSDPFVDLASGQVPLPPARRLPGENVKTNRTSQDYDQLPSCSDGSQAPARPPKPRPRRTAPEIHHRKPHGPEAALENVDAKIAKLMGEGYAFEEVKRALEIAQNNVEVARSILREFAFPPPVSPRLNL [CBLB]”: the “solubility change mitosis (log2)” value with HeLa Kyoto [1] stood at 0.0975. Also, the thermal stability score with HeLa Kyoto [2] (setting [4]) was -0.843; in the series with HeLa Kyoto [2] (cell cycle stage: mitosis) it was -0.129. Further, the “solubility in G1/S (log2)” value with HeLa Kyoto [3] is -0.447.

Turning to “MAPSLWKGLVGIGLFALAHAAFSAAQHRSYMRLTEKEDESLPIDIVLQTLLAFAVTCYGIVHIAGEFKDMDATSELKNKTFDTLRNHPSFYVFNHRGRVLFRPSDTANSSNQDALSSNTSLKLRKLESLRR [MMGT1]”, in the series with HeLa Kyoto [1], the “solubility change mitosis (log2)” value was -0.109. The thermal stability score with HeLa Kyoto [2] (setting [4]) was -0.869; in the series with HeLa Kyoto [2] (cell cycle stage: mitosis), -1.57. Besides, the “solubility in G1/S (log2)” value in the series with HeLa Kyoto [3] is -0.125.

The values above are taken from the supplement of paper PMC5998384.
